Data published in the DeepSol protein solubility set.

Test: soluble on expression in E. coli; label from the status in PepcDB or PDB records

Sequence | soluble on expression in E. coli
MKERTIQPVNNGLNGNITIPGDKSISHRAVMFGAIAEGTTTIKGFLPGADCLSTISCFKEMGVDIVQNGDEVTVVGKGLEGLQEPKAVLDVGNSGTTIRLMSGILANTPFLSCVQGDTSIAKRPMKRVTNPLKQMGANIDGREEGTFTPLTIRGGDLKAIEYTSPVASAQVKSAILLAGLRAEGVTAVTEPHISRDHTERMLEAFGVKVTREGKTVKLAGGQKLTATDVQVPGDVSSAAFFLVAGAIIPNSKLVLENVGMNPTRTGIIDVLEKMGATFTVEPINEGASEPAANITIETSSLKGIEIGGDIIPRLIDEIPVIALAATQAEGITVIKDAHELKVKETNRIDTVVAELTKLGARIEATDDRMIIYGKSALKGNTVNSYGDHRIGMMLAIAGCIAEGKTIIEDAEAVGVSYPTFFEELQKLAK | not soluble
MKVGNQMNEEQLSKRLEKVASYITKNERIADIGSDHAYLPCFAVKNQTASFAIAGEVVDGPFQSAQKQVRSSGLTEQIDVRKGNGLAVIEKKDAIDTIVIAGMGGTLIRTILEEGAAKLAGVTKLILQPNIAAWQLREWSEQNNWLITSEAILREDNKVYEIMVLAPSEKPVTWTKQEIFFGPCLLKEQSAIFKSKWRHEANTWQNIIQTISNNQPVSTENQAKIRELEHKIALVEDVLK | not soluble
MSLHSPGKAFRAALTKENPLQIVGTINANHALLAQRAGYQAIYLSGGGVAAGSLGLPDLGISTLDDVLTDIRRITDVCSLPLLVDADIGFGSSAFNVARTVKSMIKAGAAGLHIEDQVGAKRCGHRPNKAIVSKEEMVDRIRAAVDAKTDPDFVIMARTDALAVEGLDAAIERAQAYVEAGAEMLFPEAITELAMYRQFADAVQVPILANITEFGATPLFTTDELRSAHVAMALYPLSAFRAMNRAAEHVYNVLRQEGTQKSVIDTMQTRNELYESINYYQYEEKLDNLFARSQVK | soluble
MGSDKIHHHHHHMIYLEQFTFPDGDRESIFFQDKVKRTCYDSYYPFQVLPGRGLERLDFDLITILYGGNGSGKSTLLNIIAEKTEIPRDAIYNKSNFFPDYVAMCEMQLKVFLPEHSRIITSDDVFDYMLNIRSLNEGIDRKREQLFDDYLEAKYSRFQLKSLADYEELKRVNHARFNSQSRFVRNELMDNAREYSNGENAFRYFTEKIDEKGLYLLDEPENSLSPKRQLELVQFIEDSARFWQCQFIIATHSPFLLALRGAKIYNLDETPVAVKRWTELENVRIYYDFFKKREREF | not soluble
GPGSMPAAPLPGEVAKFCSPLYMHKRILRAAAPKPPTVFTAKDNSKTAFHVVTQRPGFATTPYTVSRWYLKEKVHSSNRNRLEGLYECVLCASCTGSCPQYWWNRELFLGPAVLLQSYRWLIEPLDRDFDSRVKMFEHGPLVNFCHNIFNCSITCPKFLNPGMASKEIKRLSSPATLRVGPPLEDAKVASKY | not soluble
MSLRPYQEKARLFLNGEMSATLFVELGIATSCRKGLKKGFFNQDDFFAYQCDEWGLYGVFDGHGPGGHLVANFVQWHLPNIIHEYMITSEPRVALHRAFVEVNSMLTDASEAQKFDSASSGSTASVVLHRRQERKLFLAHVGDSRVVLARRNHQGRLVADCVTKDHKPDDPVERARIERHGGEVRRPTGHIPHRVFLKGKNYPGLAMSRSIGDSMGHCAGVTSEPDISDIDLLEDRDEVVIMCTDGVWEFMTPDEVVDIVSRYSIYQADEAAQELSREAWKRWLEQDGHSVDDITVQIIHLFPPAEEKHPEGHHHHHH | soluble
MPFPVTTQGSQQTQPPQKHYGITSPISLAAPKETDCLLTQKLVETLKPFGVFEEEEELQRRILILGKLNNLVKEWIREISESKNLPQSVIENVGGKIFTFGSYRLGVHTKGADIDALCVAPRHVDRSDFFTSFYDKLKLQEEVKDLRAVEEAFVPVIKLCFDGIEIDILFARLALQTIPEDLDLRDDSLLKNLDIRCIRSLNGCRVTDEILHLVPNIDNFRLTLRAIKLWAKRHNIYSNILGFLGGVSWAMLVARTCQLYPNAIASTLVHKFFLVFSKWEWPNPVLLKQPEECNLNLPVWDPRVNPSDRYHLMPIITPAYPQQNSTYNVSVSTRMVMVEEFKQGLAITDEILLSKAEWSKLFEAPNFFQKYKHYIVLLASAPTEKQRLEWVGLVESKIRILVGSLEKNEFITLAHVNPQSFPAPKENPDKEEFRTMWVIGLVFKKTENSENLSVDLTYDIQSFTDTVYRQAINSKMFEVDMKIAAMHVKRKQLHQLLPSHVLQKKKKHSTEGV | soluble
MYLMSSIPPLIDLLPHDTPLALVDELIEVNDLSVHCQVTIGENNVFFDHETKTVPAWVGIEFMAQSIAGWSGYHAWKKGNKSPIGFLLGSRKYQAECSEFQQGDTLDIFAEQVLENNGMAVFSCYIEHKGQQLASSQLNVFVPTEEKLEELLTPKQLEHHHHHH | soluble
MKTVILIGALGKMGQAALTGLSKHKVITAGRSGNVDHLVDITNENSIRALYEKVGHFDAVVNTVGFCEYATFAEMTEAQWMTTVMSKMMGQINLVRIGQEYIADKGSFTLISGILNVKPIPCAIADATTSGAIDTFVKCVAYEMQRGTRINVVNPTVLTEAWDVYGDMMPGFEPVPSTLVGKAFERSVDGFINGEVLFVDALEHHHHHH | soluble
MGSDKIHHHHHHMPFLLSGHLSDQSCKAGTLPYKIRIVLILFLCPHMCLTNDEGSAVPATDLAAHQIHILYTDHHGWLYNWLRHKLGNACDAADIAQDTFMRILTRQQPVHLNEPRAYLSTIAHGLVIDHWRRRELERAWLETLASLPEPEAPAPETRLIFLEALIEIDRLLDSLKPRVRTTFLLAQLDGLTCPQIAERLGVSLSTVERYITKALRSCYMLRFEP | not soluble
MALPKTGYTKTTADNFVIDSATVFTDFKYDKEKEEFTGIPMGATSGGVEIKTELSYRKVEVDGAYIMDVVGLNVLESATATMKANLIELTAENLRRSLNATMTDATTDEAPAGYKIIKPKRYLEEGDYIPNMAVVGIHNGTKQPIIVALDNGLVKSGLEIKTEDGKEVVIEQEITANASYEQLINDEFPFRIYYPSTSKNPIELTESL | not soluble
MNSLVRRSAQQLSLWRTYCIKHNASEAASPGRNAGRPNYEEFIGRHQRQAQCSIVVQVSSEKSYEELYNYCSSFGSIMGAHHYCVRQDETLHYILLEYATSDEAAAAIGAGVTNGELSGVPVRSPFLWFRAAGGGRRSPKLVANTAPALLSLDGTRQVDQRHLLGLLRGAADIEEQVQQLYEHTRLNELGIRMRFLAALQVQQAIAGMFPAAQAQPFGSSVNGFGRMGCDLDLILRFDSDMGAKIPLEAAVPSRLVYHTKENLSNGRSQTQRHMECFGDMLHLFLPGVCHVRRILQARVPIIKYHHEHLDLEVDLSMSNLTGFYMSELLYMFGEMDPRVRPLTFTIRRWAQTCGLTNPSPGRWISNFSLTCLVMFFLQQLRQPILPTIGALAKAAEPGDSRVTEDGINCTFTRNVDRLGFRSRNQSSLSELLLQFFEFYSQFDFHNRAISLNEGKPLSKPDHSAMYIVNPLEQLLNVSKNVSLEECERLRIEVRNAAWVLESEVENASVPEGDGQELSCGLLNLFKHPEKAVIRPNMFFKPRMVEVSDLFEQKEAGATSSSTPPTPAITYKSASVRQQVQSIKAATRSELKQLRGSGSSVPTSSPNNRRRS | not soluble
MGSDKIHHHHHHMTNWNLWRTLNMEYIINPCSGIKIKITRGQKIKIVDIEGGQVVDFFAEMKDDSTEFISPGVTIDCNESLRLQVGNLIYSNKYRPMFKILYDDVREHDLLHPCCRPEMYDFFYHNGENHPNCFDNINRTLGTSHQIIHPINFFMYTKVNTDGSIEVCEPLSKANDKIILEALENMTLGIAACSVSESSCNSRKCTSIKILVD | not soluble
MSEMTPREIVSELDQHIIGQADAKRAVAIALRNRWRRMQLQEPLRHEVTPKNILMIGPTGVGKTEIARRLAKLANAPFIKVEATKFTEVGYVGKEVDSIIRDLTDSAGGAIDAVEQNGIVFIDEIDKICKKGEYSGADVSREGVQRDLLPLVEGSTVSTKHGMVKTDHILFIASGAFQVARPSDLIPELQGRLPIRVELTALSAADFERILTEPHASLTEQYKALMATEGVNIAFTTDAVKKIAEAAFRVNEKTENIGARRLHTVMERLMDKISFSASDMNGQTVNIDAAYVADALGEVVENEDLSRFIL | soluble
MTKTEKDWFQRLIKLIKSDGRTMIEISKAAGCGQNYVQQMIKGGKRPSVDKLMALLNTLGNASAIYVITGFNISDEDLKLIALISSGDKKKIEALSLLLTEKKQ | not soluble
MSDISIEMIKRIVEEVVKKFLSKKILVVFTGGKVNFDISLDELKKIKENSMVEYTLVFSRAASQIFNKKMISDQLESVEVIEEGEAINARECVQKHNMVIFATLTRNTASKISHLILDTLPTQIAINCVLSDVPIVAVRDAADLNVETWRELGFSNFPPALKNSYDKIFKDIESYGIELCNSFELAKKVLGYLNSNSFSIAEKINKEEKSKRENSYYNGAKNIRLEKKIITREDIIGLKGKIDTIEIAKDSIITPLAMDFIRDNQLKVIKT | not soluble
MDMRSHEMIERRREDNGNNNGGVVISNIISTNIDDNCNGNNNNTRVSCNSQTLDHHQSKSPSSFSISAAAKPTVRYRECLKNHAASVGGSVHDGCGEFMPSGEEGTIEALRCAACDCHRNFHRKEMDGVGSSDLISHHRHHHYHHNQYGGGGGRRPPPPNMMLNPLMLPPPPNYQPIHHHKYGMSPPGGGGMVTPMSVAYGGGGGGAESSSEDLNLYGQSSGEGAGAAAGQMAFSMSSSKKRFRTKFTTDQKERMMDFAEKLGWRMNKQDEEELKRFCGEIGVKRQVFKVWMHNNKNNAKKPPTPTTTL | not soluble
MEAVVVEREAKGMKEIAIQEKDLTLQWRGNTGKLVKVRLKNTRAMEMWYNKQITEENIQEITTLNIIKNGKSLALEVYPEKSIYVKPNLGRINVPVFFIKTPINRGVFEEIFGETLKA | soluble
MGSSHHHHHHSSGLEVLFQGPAMATKKVHIISHSHWDREWYMAYEQHHMRLINLIDDLLEVFQTDPDFHSFHLDGQTIILDDYLKVRPEREPEIRQAIASGKLRIGPFYILQDDFLTSSESNVRNMLIGKEDCDRWGASVPLGYFPDTFGNMGQTPQLMLKAGLQAAAFGRGIRPTGFNNQVDTSEKYSSQFSEISWQGPDNSRILGLLFANWYSNGNEIPTTEAEARLFWDKKLADAERFASTKHLLMMNGCDHQPVQLDVTKAIALANQLYPDYEFVHSCFEDYLADLADDLPENLSTVQGEITSQETDGWYTLANTASARIYLKQANTRVSRQLENITEPLAAMAYEVTSTYPHDQLRYAWKTLMQNHPHDSICGCSVDSVHREMMTRFEKAYEVGHYLAKEAAKQIADAIDTRDFPMDSQPFVLFNTSGHSKTSVAELSLTWKKYHFGQRFPKEVYQEAQEYLARLSQSFQIIDTSGQVRPEAEILGTSIAFDYDLPKRSFREPYFAIKVRLRLPITLPAMSWKTLALKLGNETTPSETVSLYDDSNQCLENGFLKVMIQTDGRLTITDKQSGLIYQDLLRFEDCGDIGNEYISRQPNHDQPFYADQGTIKLNIISNTAQVAELEIQQTFAIPISADKLLQAEMEAVIDITERQARRSQEKAELTLTTLIRMEKNNPRLQFTTRFDNQMTNHRLRVLFPTHLKTDHHLADSIFETVKRPNHPDATFWKNPSNPQHQECFVSLFDGENGVTIGNYGLNEYEILPDTNTIAITLLRSVGEMGDWGYFPTPEAQCLGKHSLSYSFESITKQTQFASYWRAQEGQVPVITTQTNQHEGTLAAEYSYLTGTNDQVALTAFKRRLADNALITRSYNLSNDKTCDFSLSLPNYNAKVTNLLEKDSKQSTPSQLGKAEILTLAWKKQ | soluble
MPKVGMQPIRRQQLIQATLTAVDQVGMGDASIALIARLAGVSNGIISHYFQDKNGLIAATMRHLMNALIQNVRERRQALTEDSPRAHLQVIIEGNFDASQVSGPAMKTWLAFWATSMHHPSLHRLQRINDHRLYSNLCCQFRRTLPLEQARNAARGLAALIDGLWLRGALSGDAFDTEQAQRIAYEYMDFQLAKSAS | not soluble
